Test results reported in US20140004122A1, “METHODS FOR TREATING OR PREVENTING CHOLESTEROL RELATED DISORDERS” (AMGEN INC., priority 2011, published 2014).
Entries after “also recorded” stand apart in the source; their conditions may differ. Marks after values point to notes of the source that are not given here.

Legend:
[1] = test system: human patient exhibiting symptoms of hypercholesterolemia; test: Treatment of hypercholesterolemia (Example 17); assay type: in vivo; details: therapeutically effective amount
Source text: At periodic times during the treatment, the human patient is monitored to determine whether the serum cholesterol level has declined.

[2] = Pharmacokinetics in cynomolgus monkeys; assay type: in vivo, cynomolgus monkey; details: 0.5 mg/kg single SC
Procedure: Antibody concentrations in serum were determined using an enzyme-linked immunosorbent assay (ELISA) with an assay range of 34.4 to 3000 ng/mL (34.4 ng/mL being the lower limit of quantitation [LLOQ]).
Non-compartmental analysis (NCA) was performed on the serum concentrations using the pre-determined nominal time points for each subject using Watson® LIMS, version 7.0.0.01 (Thermo Scientific, Waltham, Mass.). Data points for estimating the terminal elimination rate constants and half-lives were chosen by visual inspection of the concentration-time profile and best linear fit (typically from 360 h until the antibody concentrations dropped below the lower limit of quantitation).
NCA parameters reported include: terminal half-life (t1/2,z), the maximum serum concentration (Cmax), area under the serum concentration-time curve from time zero to infinity (AUC0-inf), and apparent serum clearance (CL/F). AUC0-inf was calculated using the linear log-linear trapezoidal method. All parameters were all reported to three significant figures, except for half-life which was reported to two significant figures.

healthy subjects = test: Phase 1 ascending single dose study (Example 20); assay type: in vivo, human
[3] = test system: subjects with hyperlipidemia on stable doses of a statin; test: Phase 1b ascending multiple dose study on stable statin (Example 21); assay type: in vivo
Procedure: The study had seven cohorts. […] Cohort 6 was conducted in hypercholesterolemic subjects on high doses of a statin (atorvastatin 80 mg or rosuvastatin 40 mg).

[4] = test system: hypercholesterolemic subjects with a 10 year Framingham risk score of 10% or less; test: 12 week monotherapy dose-ranging study (Example 24); assay type: in vivo, human; details: for mean percent reduction from baseline in LDL-C: preliminary; for Least squares mean percent change from baseline (%) in LDL-C / Treatment difference vs ezetimibe (%) in LDL-C / Treatment difference vs placebo (%) in LDL-C: week 12; for Treatment difference vs ezetimibe (%) in LDL-C / Treatment difference vs placebo (%) in LDL-C: P < 0.001
Procedure: Ezetimibe was not blinded. The end-of-study visit and the last estimation of lipids was at week 12 for subjects on Q4W IP schedule or on ezetimibe and week 14 for subjects on Q2W IP schedule.
Males and females, ≧18 to ≦75 years of age, were eligible for this study. Fasting LDL-C was ≧100 mg/dL (2.6 mmol/L) and <190 mg/dL (4.9 mmol/L) and fasting triglycerides ≦400 mg/dL (4.5 mmol/L) by central laboratory at screening.
The primary endpoint was the percent change from baseline in LDL-C at week 12. Secondary endpoints included percent changes in apolipoprotein B (ApoB), lipoprotein (a) (Lp(a)), and in the ratio of total cholesterol to high-density lipoprotein (HDL)-C. Tolerability and safety were also evaluated.

[5] = cohort 6, high-dose statins, 140 mg SC Q2W 3 times

B1: 21B12: human anti-PCSK9 monoclonal antibody; light/heavy variable region SEQ ID NO 23/49 (antibody, listed as Homo sapiens, V domains shown)
VH: QVQLVQSGAEVKKPGASVKVSCKASGYTLTSYGISWVRQAPGQGLEWMGWVSFYNGNTNYAQKLQGRGTMTTDPSTSTAYMELRSLRSDDTAVYYCARGYGMDVWGQGTTVTVSS
VL: QSALTQPASVSGSPGQSITISCTGTSSDVGGYNSVSWYQQHPGKAPKLMIYEVSNRPSGVSNRFSGSKSGNTASLTISGLQAEDEADYYCNSYTSTSMVFGGGTKLTVL
With B1 the “serum cholesterol levels vs patients not receiving the treatment” value [1] was “reduced serum cholesterol levels”, the half-life [2] was about 40 h and the “AUC0-inf (median)” value (healthy subjects; 420 mg IV group) was 1550 µg·days/mL. For the same molecule, the “median maximum observed concentration (Cmax)” value (healthy subjects; 420 mg IV group) was 139 µg/mL, the “subjects with treatment-related adverse events” value (healthy subjects; 18 of 42 subjects) was 43% and the “subjects with treatment-emergent adverse events” value (healthy subjects; 21B12 at any dose, 29 of 42 subjects) was 69%. For the same molecule, the “anti-21B12 antibodies in serum” value (healthy subjects; all 42 subjects who received 21B12) was “negative”, the “effects on laboratory variables, ECGs, vital signs” value (healthy subjects; in vivo) was “no trends indicative of clinically important effects” and the tolerability (healthy subjects; single SC and IV doses up to 420 mg) was “well tolerated”. For the same molecule, the serious adverse events (healthy subjects; single SC or IV dose) was “No adverse events were reported as serious”, the “LDL-C nadir observed within (after dosing)” value (healthy subjects; single dose) was at most 2 weeks and the elimination (healthy subjects; single dose SC or IV) was “nonlinear (concentration-dependent) elimination”. The “suppression of PCSK9” value (healthy subjects; single doses ≧70 mg SC) was “Complete suppression of PCSK9”, the “maximum ApoB reduction during the study” value ([3]; 35 mg QW) was 48% and the “maximum ApoB reduction during the study” value ([3]; 140 mg and 280 mg Q2W and 420 mg Q4W) was 59%. For the same molecule, the “plasma PCSK9” value ([3]; at higher doses) was “undetectable”, the “suppression of PCSK9” value ([3]; cohort 3, 140 mg Q2W SC 3 times, preliminary) was “Near-complete suppression of PCSK9” and the “maximum reduction in LDL-C versus placebo” value [3, 5] was 73%. The “mean reduction in LDL-C vs placebo at the end of the dosing interval” value [3, 5] was 63%, the “maximum LDL-C reduction versus placebo” value ([3]; cohort 7 heFH) was 70% and the “maximum reduction of ApoB versus placebo” value ([3]; cohort 7 heFH) was 57%. For the same molecule, the “maximum reduction of non-HDL cholesterol versus placebo” value ([3]; cohort 7 heFH) was 67%, the “maximum total cholesterol reduction versus placebo” value ([3]; cohort 7 heFH) was 47% and the “serious AEs” value ([3]; cohort 7 heFH) was “No serious AEs were reported”. For the same molecule, the “mean reduction in LDL-C vs placebo at the end of the dosing interval” value ([3]; cohort 7 heFH, 140 mg SC Q2W 3 times, week 6) was 65%, the “mean reduction in ApoB levels vs placebo” value ([3]; cohort 7 heFH, week 6) was “up to 47%” and the “mean reduction in lipoprotein a (Lp(a)) vs placebo” value ([3]; cohort 7 heFH, week 6) was 50%. For the same molecule, the “mean reduction in non-HDL cholesterol vs placebo” value ([3]; cohort 7 heFH, week 6) was 61%, the “mean reduction in serum PCSK9 values vs placebo” value ([3]; cohort 7 heFH, week 6) was 78% and the “mean reduction in total cholesterol vs placebo” value ([3]; cohort 7 heFH, week 6) was “up to 42%”. The “mean ApoB reduction vs placebo at the end of the dosing interval” value ([3]; cohorts 1-5) was “up to 54%”, the “mean reduction of PCSK9 levels vs placebo at the end of the dosing interval” value ([3]; cohorts 1-5) was “up to 94%” and the “mean LDL-C reduction vs placebo at maximal reduction” value ([3]; cohorts 1-5, low to moderate doses of statins, 3 biweekly SC doses) was “up to 81%”. The “mean LDL-C reduction vs placebo at the end of the dosing interval” value ([3]; cohorts 1-5, week 6 after 3 biweekly SC doses) was at most 75%, the “mean LDL-C reduction at the end of the dosing interval” value ([3]; cohorts 1-5, week 8 after 2 every 4 week SC doses) was at most 66% and the “mean Lp(a) reduction vs placebo at the end of the dosing interval” value ([3]; cohorts 1-6) was “up to 43%”. For the same molecule, the “deaths or serious adverse events” value ([3]; cohorts 1-6, final results) was “No deaths or serious adverse events (AEs) were reported; also recorded: no serious AEs”, the “neutralizing antibodies to 21B12” value ([3]; cohorts 1-6, final results) was “No neutralizing antibodies to 21B12 were detected” and the “circulating PCSK9” value ([3]; heFH subjects after treatment) was “undetectable”. The “LDL-C nadir observed within (after initial dosing)” value ([3]; preliminary, cohorts 1-3, stable moderate doses of statins) was at most 2 weeks, the “decrease of circulating LDL-C vs placebo” value ([3]; repeated SC doses over 6 weeks, low-to-moderate or high-dose statins) was “up to 81%” and the “mean percent reduction from baseline in LDL-C” value ([4]; 70 mg (Q2W), end of the dosing interval) was 41.21%. For the same molecule, the “mean percent reduction from baseline in LDL-C” value ([4]; 105 mg (Q2W), end of the dosing interval) was 45.44%, the “mean percent reduction from baseline in LDL-C” value ([4]; 140 mg (Q2W)) was 51.56% and the “mean percent reduction from baseline in LDL-C” value ([4]; 280 mg (Q4W), end of the dosing interval) was 37.53%. For the same molecule, the “mean percent reduction from baseline in LDL-C” value ([4]; 350 mg, end of the dosing interval) was 42.16%, the “mean percent reduction from baseline in LDL-C” value ([4]; 420 mg) was 47.52% and the “LDL-C reductions from baseline greater than ezetimibe” value ([4]; final data) was 37%. The “change in LDL-C from baseline to week 12 greater than with placebo” value ([4]; final data) was “up to 72 mg/dL”, the “mean reduction from baseline for ApoB” value ([4]; final data) was “up to 44%” and the “mean reduction from baseline for Lp(a)” value ([4]; final data) was “up to 29%”. The “least-squares (LS) mean percent reduction from baseline in LDL-C” value ([4]; week 12, final data) was “up to 51%”, the “Least squares mean percent change from baseline (%) in LDL-C” value ([4]; Q2W 70 mg SC (N = 45)) was −40.98% and the “Treatment difference vs ezetimibe (%) in LDL-C” value ([4]; Q2W 70 mg) was −26.73* %. For the same molecule, the “Treatment difference vs placebo (%) in LDL-C” value ([4]; Q2W 70 mg) was −37.27* %, the “Least squares mean percent change from baseline (%) in LDL-C” value ([4]; Q2W 105 mg SC (N = 46)) was −43.87% and the “Treatment difference vs ezetimibe (%) in LDL-C” value ([4]; Q2W 105 mg) was −29.62* %. For the same molecule, the “Treatment difference vs placebo (%) in LDL-C” value ([4]; Q2W 105 mg) was −40.17* %, the “Least squares mean percent change from baseline (%) in LDL-C” value ([4]; Q2W 140 mg SC (N = 45)) was −50.93% and the “Treatment difference vs ezetimibe (%) in LDL-C” value ([4]; Q2W 140 mg) was −36.68* %. For the same molecule, the “Treatment difference vs placebo (%) in LDL-C” value ([4]; Q2W 140 mg) was −47.23* %, the “Least squares mean percent change from baseline (%) in LDL-C” value ([4]; Q4W 280 mg SC (N = 45)) was −39.02% and the “Treatment difference vs ezetimibe (%) in LDL-C” value ([4]; Q4W 280 mg) was −25.17* %. For the same molecule, the “Treatment difference vs placebo (%) in LDL-C” value ([4]; Q4W 280 mg) was −43.57* %, the “Least squares mean percent change from baseline (%) in LDL-C” value ([4]; Q4W 350 mg SC (N = 45)) was −43.20% and the “Treatment difference vs ezetimibe (%) in LDL-C” value ([4]; Q4W 350 mg) was −29.34* %. For the same molecule, the “Treatment difference vs placebo (%) in LDL-C” value ([4]; Q4W 350 mg) was −47.74* %, the “Least squares mean percent change from baseline (%) in LDL-C” value ([4]; Q4W 420 mg SC (N = 45)) was −47.98% and the “Treatment difference vs ezetimibe (%) in LDL-C” value ([4]; Q4W 420 mg) was −34.14* %. The “Treatment difference vs placebo (%) in LDL-C” value ([4]; Q4W 420 mg) was −52.53* %.
